Experimental findings from paper doi:10.1101/2022.01.10.475532 are described below.

Experiment [1] has as its target prefusion-stabilized S protein of SARS-CoV-2 Delta (B.1.617.2) variant (S trimer) (SARS-CoV-2). The experiment is described as follows: BLI. For orientation: Biolayer interferometry detects binding as a change in optical thickness at a sensor tip.
Experiment [2] concerns the target prefusion-stabilized S protein of SARS-CoV-2 G614 variant (S trimer) (SARS-CoV-2). The experiment can be described thus: BLI.

Sequence of human ACE2 peptidase domain (PD) (Q9BYF1 18-615): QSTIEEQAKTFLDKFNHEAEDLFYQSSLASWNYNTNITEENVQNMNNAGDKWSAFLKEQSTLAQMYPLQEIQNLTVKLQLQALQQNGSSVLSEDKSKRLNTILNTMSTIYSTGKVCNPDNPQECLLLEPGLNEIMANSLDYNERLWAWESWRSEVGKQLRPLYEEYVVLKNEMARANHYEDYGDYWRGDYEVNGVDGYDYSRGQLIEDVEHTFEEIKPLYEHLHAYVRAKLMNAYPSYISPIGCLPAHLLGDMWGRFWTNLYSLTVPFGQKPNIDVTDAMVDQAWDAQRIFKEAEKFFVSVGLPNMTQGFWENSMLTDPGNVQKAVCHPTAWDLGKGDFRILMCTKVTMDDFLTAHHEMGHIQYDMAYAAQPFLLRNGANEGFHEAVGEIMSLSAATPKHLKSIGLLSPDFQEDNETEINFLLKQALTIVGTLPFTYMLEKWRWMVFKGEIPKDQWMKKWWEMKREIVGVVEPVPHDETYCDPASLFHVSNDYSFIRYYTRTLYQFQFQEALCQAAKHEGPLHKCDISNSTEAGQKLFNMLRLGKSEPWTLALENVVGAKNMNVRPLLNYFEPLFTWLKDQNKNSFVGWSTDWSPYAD

Regarding “human ACE2 peptidase domain (PD) (from UniProt Q9BYF1 18-615) (domain or fragment)”, the results for the Kd in experiment [1] and in experiment [2] were 88 nM and 237 nM, respectively.
